Data taken from patent publication US20190169308A1 (ALLIGATOR BIOSCIENCE, published 2019).

B1: 1212/1213 (antibody, V domains shown)
VH: EVQLLESGGGLVQPGGSLRLSCAASGFTFSSYAMSWVRQAPGKGLEWVSYISSYGGYTSYADSVKGRFTISRDNSKNTLYLQMNSLRAEDTAVYYCARYHSGVLDYWGQGTLVTVSS
VL: DIQMTQSPSSLSASVGDRVTITCRASQSISSYLNWYQQKPGKAPKLLIYAASSLQSGVPSRFSGSGSGTDFTLTISSLQPEDFATYYCQQYYYHYLLTFGQGTKLEIK
B2: 1626-1208 (bispecific antibody)
heavy: not shown
light: DIQMTQSPSSLSASVGDRVTITCRASQSISSYLNWYQQKPGKAPKLLIYAASSLQSGVPSRFSGSGSGTDFTLTISSLQPEDFATYYCQQGTGYGPLTFGQGTKLEIKRTVAAPSVFIFPPSDEQLKSGTASVVCLLNNFYPREAKVQWKVDNALQSGNSQESVTEQDSKDSTYSLSSTLTLSKADYEKHKVYACEVTHQGLSSPVTKSFNRGEC
notes: Morrison format IgG-scFv
B3: 1626-1210 (bispecific antibody)
heavy: not shown
light: B2 light
notes: Morrison format IgG-scFv

How the values were obtained:
[1] = molecular target: T1, human/mouse 5T4 chimera E3; experiment: flow cytometry, cells with human/mouse 5T4 chimera
T1 construct: on transfected CHO cells
Procedure: (§1) Epitope mapping was performed by investigation of loss of binding by the antibodies using a panel of human/mouse chimeric 5T4 constructs by flow cytometry. […] Two strategies were used for the epitope mapping as illustrated in FIG. 5. In one approach, seven human/mouse 5T4 chimeras were constructed based on dividing 5T4 into seven different domains (FIG. 5). By replacing each domain with the corresponding mouse sequence seven human/mouse 7 5T4 human/mouse chimeras were generated. The chimeras were generated using the human protein 5T4 sequence NP_006661.1 (reference mRNA sequence NM_006670.4) and the corresponding mouse sequence NP_035757.2 (reference mRNA sequence NM_011627.4). The human/mouse chimeric DNA constructs, as well as human and mouse wild-type 5T4, were cloned into pcDNA3.1 expression vectors. […] As controls human 5T4 and mouse 5T4-transfected cells were used. For flow cytometric analysis, cells were stained with different 5T4 antibodies diluted in FACS buffer (PBS, 0.5% BSA). […] Samples were analysed by FACSverse (BD Biosciences, Heidelberg, Germany) and % positive cells were determined. To compensate for variations in % 5T4 positive cells in the various transfected populations, binding levels were normalized within each chimera by dividing % positive cells for each clone with % positive cells for the clones resulting in the highest % positive cells (% pos cellscloneX/% positive cellsₘₐₓ). A normalized value ≤0.75 was defined as mAb binding being dependent on the replaced region, whereas a normalized value ≤0.25 was defined as complete dependence.

[2] = molecular target: T2, human/mouse 5T4 chimera E7; experiment: flow cytometry, cells with human/mouse 5T4 chimera
T2 construct: on transfected CHO cells
Procedure: as §1

[3] = molecular target: T3, human/mouse 5T4 chimera E5; experiment: flow cytometry, cells with human/mouse 5T4 chimera
T3 construct: on transfected CHO cells
Procedure: as §1

[4] = molecular target: T4, human/mouse 5T4 chimera E4; experiment: flow cytometry, cells with human/mouse 5T4 chimera
T4 construct: on transfected CHO cells
Procedure: as §1

[5] = molecular target: T5, human/mouse 5T4 chimera E6; experiment: flow cytometry, cells with human/mouse 5T4 chimera
T5 construct: on transfected CHO cells
Procedure: as §1

[6] = molecular target: T6, human/mouse 5T4 chimera E2; experiment: flow cytometry, cells with human/mouse 5T4 chimera
T6 construct: on transfected CHO cells
Procedure: as §1

[7] = molecular target: T7, human/mouse 5T4 chimera E1; experiment: flow cytometry, cells with human/mouse 5T4 chimera
T7 construct: on transfected CHO cells
Procedure: as §1

[8] = molecular target: T8, human 5T4 on transfected cells (human, UniProt Q13641 32-420); experiment: flow cytometry, 5T4-transfected B16 cells
T8 construct: whole, on cells; also called B16-5T4; CHOh5T4
T8 sequence (looked up): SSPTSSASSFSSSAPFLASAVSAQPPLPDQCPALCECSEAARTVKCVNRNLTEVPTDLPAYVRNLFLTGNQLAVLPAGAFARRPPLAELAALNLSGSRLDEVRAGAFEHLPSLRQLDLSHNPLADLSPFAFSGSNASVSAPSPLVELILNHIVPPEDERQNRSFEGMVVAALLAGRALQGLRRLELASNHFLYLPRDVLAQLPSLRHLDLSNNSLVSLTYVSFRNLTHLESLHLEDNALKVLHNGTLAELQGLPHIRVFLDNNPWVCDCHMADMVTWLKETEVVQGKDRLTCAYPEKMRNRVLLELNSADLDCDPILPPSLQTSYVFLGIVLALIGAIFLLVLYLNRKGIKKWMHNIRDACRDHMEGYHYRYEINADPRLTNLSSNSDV

[9] = molecular target: T9, cynomolgus 5T4 on transfected CHO cells (Macaca mulatta (cynomolgus), UniProt F7CT46 35-420); experiment: flow cytometry, 5T4-transfected CHO cells
T9 construct: also called cyno5T4; cy5T4
T9 sequence: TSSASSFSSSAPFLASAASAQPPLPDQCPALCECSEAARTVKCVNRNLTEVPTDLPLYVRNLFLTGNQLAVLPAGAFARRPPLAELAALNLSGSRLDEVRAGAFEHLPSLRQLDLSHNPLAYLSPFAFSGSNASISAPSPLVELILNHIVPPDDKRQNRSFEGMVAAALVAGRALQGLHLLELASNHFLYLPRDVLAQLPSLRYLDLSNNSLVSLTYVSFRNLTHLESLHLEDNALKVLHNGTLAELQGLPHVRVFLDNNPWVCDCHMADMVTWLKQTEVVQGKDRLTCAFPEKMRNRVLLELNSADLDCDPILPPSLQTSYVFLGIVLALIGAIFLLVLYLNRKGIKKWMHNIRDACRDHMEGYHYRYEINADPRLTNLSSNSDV
Procedure: (§2) The potency of 5T4 antibodies in binding to cynomolgus 5T4 was determined by flow cytometry. CHO cells were stably transfected with […] (cynomolgus) 5T4. […] Samples were analysed either on a FACSCalibur or a FACSverse (BD Biosciences, Heidelberg, Germany) and mean fluorescence intensity (MFI) determined. […] To compare the EC50 values between human and cynomolgus 5T4, the cy5T4/hu5T4 ratio was calculated from the experiment with the full dose-response.

5T4 (SPR antigen) = molecular target: T10, 5T4 (SPR antigen) (UniProt Q13641 32-355, limits assumed, biotinylated on the MASS-1 platform); experiment: SPR Biacore 3000, amine-coupled 5T4, mAb injected (bivalent)
T10 construct: also called biotinylated 5T4
T10 sequence (looked up): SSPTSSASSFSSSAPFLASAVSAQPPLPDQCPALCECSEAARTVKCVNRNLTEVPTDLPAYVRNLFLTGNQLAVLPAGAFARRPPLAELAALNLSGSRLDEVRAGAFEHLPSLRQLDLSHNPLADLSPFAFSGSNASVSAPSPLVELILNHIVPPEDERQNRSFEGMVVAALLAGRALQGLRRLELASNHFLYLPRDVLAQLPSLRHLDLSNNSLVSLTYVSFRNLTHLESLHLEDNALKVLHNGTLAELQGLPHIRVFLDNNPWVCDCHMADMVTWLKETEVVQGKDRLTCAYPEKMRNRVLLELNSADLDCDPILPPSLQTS
Procedure: Binding kinetics of the 5T4-specific mAbs have been studied using two different SPR-based platforms, the Biacore 3000 (GE Healthcare) and the MASS-1 platform (Sierra Sensors). Briefly, 5T4 was captured at the sensor chip surface either via direct amine coupling (Biacore platform) or using a streptavidin coated chip and biotinylated 5T4 (MASS-1 platform). The different 5T4-specific mAbs were then injected over the chip in increasing concentrations and the association and dissociation rates studied in real time. A 1:1 Langmuir model was used for curve fitting.

[10] = molecular target: T11, mouse 5T4 on transfected cells (mouse, UniProt Q9Z0L0 32-426); experiment: flow cytometry, mouse 5T4-transfected cells
T11 construct: whole, on cells; also called murine 5T4
T11 sequence (looked up): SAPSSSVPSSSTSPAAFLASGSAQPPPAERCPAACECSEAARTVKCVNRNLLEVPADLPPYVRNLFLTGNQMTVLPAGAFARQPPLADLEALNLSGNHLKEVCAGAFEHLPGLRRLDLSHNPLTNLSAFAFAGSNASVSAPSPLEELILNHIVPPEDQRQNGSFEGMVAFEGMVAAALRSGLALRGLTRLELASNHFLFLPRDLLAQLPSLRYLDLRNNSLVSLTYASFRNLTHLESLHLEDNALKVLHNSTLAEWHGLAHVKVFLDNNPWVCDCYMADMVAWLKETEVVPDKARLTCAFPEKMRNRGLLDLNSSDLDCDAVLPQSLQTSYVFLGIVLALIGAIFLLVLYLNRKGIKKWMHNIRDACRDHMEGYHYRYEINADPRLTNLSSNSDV

[11] = molecular target: T9, cynomolgus 5T4 on transfected CHO cells; experiment: flow cytometry, cynomolgus 5T4-transfected CHO cells
Procedure: as §2

5T4-Fc [12] = molecular target: T12, 5T4-Fc (human, UniProt Q13641 32-355, limits assumed); experiment: ELISA, coated 5T4-Fc
T12 construct: obtained from Peter L. Stern, University of Manchester; also called h5T4-Fc; recombinant 5T4
T12 sequence (looked up): T10 sequence (looked up)
Procedure: ELISA was performed using a standard protocol. Plates (#655074, Greiner Bio-One GmbH, Germany) were pre-coated with 0.5 μg/ml 5T4-Fc (obtained from Peter L. Stern, University of Manchester) overnight. 5T4 antibodies were diluted from 6 to 1.5×10⁻³ μg/ml in 1:4 dilutions and added in duplicates of 50 μl to each well. Binding was detected with rabbit anti-h kappa L-chain-HRP (P0129, Dako Denmark) and the ELISA was developed with SuperSignal ELISA PICO Chemiluminescent substrate (Thermo Scientific Pierce, Rockford, Ill. USA) for 2-10 minutes and read in an automated microplate based multi-detection reader (FLUOstar OPTIMA, Netherlands).

5T4-Fc [13] = molecular target: T12, 5T4-Fc; experiment: dual ELISA: coated 5T4-Fc, detection with CD137-bio
Procedure: Bispecific binding to both targets, CD137 and 5T4, was evaluated using a standard ELISA protocol. Plates (#655074, Greiner Bio-One GmbH, Germany) were pre-coated with 0.5 μg/ml 5T4-Fc (obtained from Professor Peter Stern, University of Manchester) overnight. CD137-5T4 bsAb were diluted from 8 to 2×10⁻³ μg/ml in 1:4 dilutions and added in duplicates of 50 μl to each well. CD137-bio (Ancell #502-030) was used as detection antibody at 0.5 μg/ml and the binding was detected with Streptavidin-HRP (Pierce #21126). The ELISA was developed with SuperSignal ELISA PICO Chemiluminescent substrate (Thermo Scientific Pierce, Rockford, Ill. USA) during 2-10 minutes and read in an automated microplate based multi-detection reader (FLUOstar OPTIMA, Netherlands).

| Binder | normalized % positive cells [1] | normalized % positive cells [2] | normalized % positive cells [3] | normalized % positive cells [4] | normalized % positive cells [5] | normalized % positive cells [6] | normalized % positive cells [7] | EC50 [8] [nM] | Ratio EC50cyno5T4/h5T4 [9] | kon (5T4 (SPR antigen)) [M⁻¹ s⁻¹] | binding result [10] | EC50 [11] [nM] | EC50 (5T4-Fc [12]) [nM] | EC50 (5T4-Fc [13]) [nM] |
| --- | --- | --- | --- | --- | --- | --- | --- | --- | --- | --- | --- | --- | --- | --- |
| B1 | 0.93 | 0.88 | 0.84 | 1 | 0.03 | 0.9 | 0.89 | 1.4 | 140 | 450000 | no binding | 30.7 | 0.56 |  |
| B2 |  |  |  |  |  |  |  |  |  |  |  |  |  | 1.91 |
| B3 |  |  |  |  |  |  |  |  |  |  |  |  |  | 0.4 |
